Results from the nanobody polyreactivity screen of Harvey et al. (2022).

Assay: yeast display, Sf9 membrane polyspecificity reagent, FACS + sequencing; frameworks hold sequencing errors
Method in brief: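 After 36–48 hours of galactose induction, yeast (Saccharomyces cerevisiae BJ5465) displaying a synthetic nanobody library were stained at 4 °C for 1 hour with 10% biotinylated, detergent-solubilized Sf9 membrane reagent. Streptavidin microbeads enriched the stained cells before FACS sorting into low and high (top ~1%) gates on anti-HA and streptavidin fluorescence. Each clone's polyreactivity label reflects its gate of origin.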

Sequence	polyreactivity (PSR sort gate)
QVQLVESGGGLVQAGGSLRLSFAASGRIFVRYSMGWYRQAPGKERELVAAISSSGSSTYYADSVKGRFTISRDNAQNTFYLKMNCLKPEDTAVYYCAAASVRYPRYEYWGQGTQVTVSS	high polyreactivity
QVQLVESGGGLVQAGGSLRLSFAASGRIFYQYAMGWYRQAPGKERELVAAINSYGGRTYYADSVKGRFTISRDNAKYTVYLQMNSLKPEDTAVYYCAKLRVPYYAEYGYWGQGTQVTVSS	high polyreactivity
QVQLVESGGGLVQAGGSLRLSFAASGRTFYSYAMGWYRQAPGKETQLVASITSTGSTYYADSVKGRFTISRDNAKNTVYLQMNSLKPEDTAVYYCAARRQPRYSQRSTYYYWGQGTQVTVSS	high polyreactivity
QVQLVESGGGLVQAGGSLRLSFAASGSIFNYNAMGWYRQAPGKERELVAAITYADSVKGRFTISRDNAKNTVYLQMNSLKPEDTAVYHCNTHYVPSFRFDYWGQGTQVTVSS	low polyreactivity
QVQLVESGGGLVQAGGSLRLSFAASGSIFVGYAMGLYRQAPGKERELVAAISWSGDSTYYADSVKGRFTISRDNAKNTVYLQMYSLKPEDTAVPYCAVDPQQVRTLDYYVGYDYWGQGTQVTVSS	low polyreactivity
QVQLVESGGGLVQAGGSLRLSFAASGSTFSEYALGLYRQAPGKERELVAAITSSSGSTYYADSVKGRFTISRVNAKNTVYLQMNSLKPEDTAVYYCNAYYRTVYYDWGDYEYWGEGTQVTVSS	high polyreactivity
QVQLVESGGGLVQAGGSLRLSFAASGSTFSSNAMGWYRQAPGKERELVAAISVNGGSTNYADSVKGRFTISRDNAKNTVYLQMNSLKPEDTAVYYCDAEPDKVAFYRGDYWGQGTQVTVSS	low polyreactivity
QVQLVESGGGLVQAGGSLRLSFAASGSTFVIYAMGWYRQAPGTERELVAAISGRTGSTYYADSVKGRFTISRDNAKNTVYLQMNSLKPEDTAVYYCAAYKRSGLKYGHWGQGTQVTVSS	high polyreactivity
QVQLVESGGGLVQAGGSLRLSFAASGSTFVYNAMGWYRPAPGKERELVAAITVIGGRTYYADSVKGRFTISRDNAKNTVYLQMNSLKPEDTAVYYCNADATESIGYYDEYEYWGQGTQVTVSS	low polyreactivity
QVQLVESGGGLVQAGGSLRLSFAASGYIFYYNAMGWYRQAPGKERELVAAISRGGNTYYADSVKGRFTISRDNAKNTVYLQMNSLKPEDNAVYYFNARPPNKRYKYGYWGQGTQVTVSS	high polyreactivity
QVQLVESGGGLVQAGGSLRLSFASSGSTFYYNAMGWYRQAPGKERDLVARISRSGGSTYADSVKGRFTISRDNAKNTVYFQMNSLKPEDTAVSYCNADAYGTPEFTSYAVRYDYGGQGTQVTVSS	low polyreactivity
QVQLVESGGGLVQAGGSLRLSGAASGFIFDQNAMGGYRQPPGKVRELVAAISKRGGSTYYADSVKGRFTISRDNAMNTVYLQMNSLKPEDTAVYYCARPRRSVNFYKYIYNYWGQGTLVTVSS	high polyreactivity
QVQLVESGGGLVQAGGSLRLSGAASGFNLEPNAMGWYRQAPGKERELVATISFSGGGTYYADSVKGRFTISRDNAKNTVYLQMNSLKPEDTAVYYCAADWYYYVWWYDYWGQGTQVTVSS	high polyreactivity
QVQLVESGGGLVQAGGSLRLSGAASGFTFGRNAMGGYRQAPGKEREFVAAISKSATSKYYADSVKGRFTISRDNAKNTVYLQMNSLKPEDTSVYYCARTNYAKRWDFDYWGQGTQVTVSS	low polyreactivity
QVQLVESGGGLVQAGGSLRLSGAASGRTFGVYVMGWYRQAPGKERELVAAIDDSGGSTYYADSVKGRFTISRDNAKNTVYLQMNSLKPEDTAVYYCAADFYVVYWGTYSVGYDYWGQGTQVTVSS	low polyreactivity
QVQLVESGGGLVQAGGSLRLSGAASGSIFYSNAMGWSRQAPGKERELVAAITVRGGSTYYADSVKGRFTISRDNAKNTVYLQMNSLKQEDTAVYYCAAEYVSYSSYIYGYLGQGTQVTVSS	high polyreactivity
QVQLVESGGGLVQAGGSLRLSGAASGSTFRRNAMGWSRQAPGKERELVAAISRRGGRTYYADSVKGRFTISRDNAKNTVYLQLNSLKPEDTAVYYCAADVIYSGDYWGQGTQVTVSS	high polyreactivity
QVQLVESGGGLVQAGGSLRLSGAASGSTFVIYAMGWSRQAPGKERELVAAIRLGGGSTYYADSVKGRFTISRDNAKNTVYLQMNSLKPEDTEVYYCAAEVDQWYYRGYVYWGQGTQVTVSS	high polyreactivity
QVQLVESGGGLVQAGGSLRLSGDASGSIFVWYDMGWYRQAPGKERELVATISLSGVSTYYADSVKGRFTISRDNAKKTVYLQMNSLKPEDNAVYYCAADFVEQGEDDYCGQGTQVTVSS	low polyreactivity
QVQLVESGGGLVQAGGSLRLSLAASGRTFEYYAMGWYRQAPGKERELVAAITSGGITYYADSVKGRFTISRDNAKNTVYLQMNSLKPEDTAVYYCNDRHRYYRYGYWGQGSQVTVSS	high polyreactivity

Sequence	polyreactivity (PSR sort gate)
QVQLVESGGGLVQAGGSLRLSLLPPDSPSTTMLWDGIDRRLGKKGSWLPVFLPSGGTTYADSVKGRFTISRDNAKNTVYLQMNSLKPEDTAVYYCAASYYRTRWSWMYYWGQGTQVTVSS	low polyreactivity
QVQLVESGGGLVQAGGSLRLSRAASGVIIYRYAMGWYRQAPGKERELVAAISRSGGSTYYADSVKGRFTISRDNAMNTVYLQMNCLKPEDTAVYYCAADRGSLAPGNDYWGQGTQVTVSS	high polyreactivity
QVQLVESGGGLVQAGGSLRLSRAATGSIIASYAMGWYRQAPGKERELVSAISARGGSTYYADSVKGRFTISRDNAKNTVYLQMNSLKPEDTAVYSCAARHQQGRRISDYGYWGQGTQVTVSS	high polyreactivity
QVQLVESGGGLVQAGGSLRLSRPASGFTYIYSVMGWYRQAPGKERELVAAINGRGDRKYYADSVKGRFTISRDNAKNTGYLQMNSLKPEDTAVYYCNARTHTWGYSAKFDYWGQGTQVTVSS	high polyreactivity
QVQLVESGGGLVQAGGSLRLSSAASGFIFAIYSMGWYRQAPGKERELVAAISRSGGRTYYADSVKGRFTISRDIAKNTVYLQMISLKPEDTAVYYCNARFQYRGVKYYYWGKGTQVTVSS	high polyreactivity
QVQLVESGGGLVQAGGSLRLSSAASGFILEPNAMGWYRQAPGKERELVAAITTSGGTYYADSVKGRFTISRDNAKNTVYLQMNSLKPEDTAVYYCNAVSTDSWAYHGDYWGQGTQVTVSS	low polyreactivity
QVQLVESGGGLVQAGGSLRLSSAASGFILRTNAMGWYRQAPGKERELVAAISVSGGRTYYADSVKGRFTISRDNAKNTVYLQMNSLKPEDTAVDYCAARDSTKLLSGYTHYYWGQGTQVTVSS	high polyreactivity
QVQLVESGGGLVQAGGSLRLSSAASGFIYRGNVMGWYRQAPGKERELVAAITWSGGSTYYADSVKGRFTISRDNAKNTVYLQMNSLKPDDTAVYYCNADLYIYEWYPALHSNDYWGQGSQVTVSS	low polyreactivity
QVQLVESGGGLVQAGGSLRLSSAASGFTFVTYSKGWNRQATGKERELVAAISIRGGSTYADSVKGRFTISRDNAKNSVYLQMNSLKPEDTAVYSCATGRALEYNYWGQGTQVTVSS	low polyreactivity
QVQLVESGGGLVQAGGSLRLSSAASGFTLDWYVIGWYRKAPWKERELVAAISSSGGRTYYADSVKGRFTISRDNAKNTVYLQMNSLKPEDTAVYYCAARNIYGGYPYGYDYWGQGTQVTVSS	high polyreactivity
QVQLVESGGGLVQAGGSLRLSSAASGHHFRTNAMGWYRQAPGKERELVAVINIGGASTYYADSVKGRFTISRDNAKNTVNLQMNSLKPEDTAVYYCAQEFYDGYFPTFDYDYWGQGTQVTVSS	low polyreactivity
QVQLVESGGGLVQAGGSLRLSSAASGIIFTFNAMRWYRQAPGKEMELVAGISLGGSSTNYADSVKGRFTISRDNAKNTVYLQMNSLKPEDTAVYYCAAYVDIVGDYWVVGYYYWGQGTQVTVSS	low polyreactivity
QVQLVESGGGLVQAGGSLRLSSAASGITFDVNVMGWYRQAPRKERELVAAIRRGDSTDYADSVKGRFSISRDNEKNTVYLQMKSLKPEDTAVYYCAADDSGYELRAYTWPYFGYDYWGQGTQVTVSS	low polyreactivity
QVQLVESGGGLVQAGGSLRLSSAASGITFYDYAMGWSRPSPGKERELVAAINSSGVRTYYADSVKGRFTISRDNAKNTVYLQMKSLNPEYTAVYYCAAKLVYGGRYGYWGQGTQVTVSS	high polyreactivity
QVQLVESGGGLVQAGGSLRLSSAASGITFYGYARGWYRQPPGKEREFVAAISYSGGSTYYADSVKGRFTISRDNAKNTVYLQMNSLKPEDTAVYYCAARVGRSLYGYWGLGTQVTVSS	high polyreactivity
QVQLVESGGGLVQAGGSLRLSSAASGLIFFTYAMGWYRQAPGKERELVATISRGGRTKYADSVKGRFTISRDNAKNSVYLQMNSLKPEDTAVYYCAAYLSRSYYAYDYWGQGTQVTVSS	high polyreactivity
QVQLVESGGGLVQAGGSLRLSSAASGNIFTYNAMGWYRPARGTERELVAAISSGGSTNYADSVKGRFTISRHNAKNTVYLQLNSLKPEDTAVYYCAADLTISYSQEYYYWGQGTQETVSS	low polyreactivity
QVQLVESGGGLVQAGGSLRLSSAASGRIFAVYAMGLYRQAPGKERELVAAINWNDGSTYYADSVKGRFTISRDNAKNTVYLQMNSLKPEDTAVYYCAARALSRSVYGKSGYKYGYWGQGTQVTVSS	high polyreactivity
QVQLVESGGGLVQAGGSLRLSSAASGRIFDGNAMGGYRQAPGTERELVATINRGARTNYADSVKGRFTISRDNAKNTVYLQMNSLKPEDTAVYYCATSYPGYAYNQAWYPYGYWGQGTQVTVSS	low polyreactivity
QVQLVESGGGLVQAGGSLRLSSAASGRIFDYYAMGWYRQAPGKESELVAAISSGSSTNYADSVKGRFTISRDNAKNTFYLQMNSLKPEDTAVYYCAATYGYLRRNHYNYWGQGTQVTVSS	high polyreactivity
